What was measured:
[1] = biological target: T1, VEGF-165 (Homo sapiens, UniProt P15692-4 P15692-4:27-191); test: SPR; 10 nM VEGF-165, 930 s; conditions: tags: PeproTech; chain copies: 2 (dimer, concentrations stated in terms of dimer)
Procedure: (§1) FIGS. 15A to 15C show the SPR sensorgrams wherein 2.5 nM, 5 nM, or 10 nM VEGF-165 was injected. […] Each sensorgram was normalized to the molecular weight of a DNA fragment bound with SPR, the molecular weight of an injected protein, and the amount of the SPR-bound DNA fragment immobilized (RU). The injection time is 480 seconds. The dissociation time is 480 seconds.
(§2) Five types of sequences were selected from the sequences shown in Table 8 and analyzed for their VEGF-165-binding ability by surface plasmon resonance (SPR) assay using BIACORE 3000 (GE Healthcare Japan Corp.) and 57-mer DNA fragments (Table 9) truncated at a primer region. A previously reported 57-mer DNA fragment comprising the DNA sequence of VEGF-165 was also prepared and analyzed as a control.

[2] = biological target: T1, VEGF-165; test: SPR; existing aptamer control; 25 C; conditions: tags: PeproTech; chain copies: 2 (dimer, concentrations stated in terms of dimer)
[3] = biological target: T2, IFN-gamma (UniProt P01579 P01579:24-166); test: SPR; 150 nM IFN-gamma, 930 s; conditions: tags: PeproTech; chain copies: 2
Procedure: as §1, with “19A” for “15A”, “19C” for “15C”, “50” for “2.5”, “100” for “5”, “150” for “10”, “IFN-γ” for “VEGF-165”
Five types of sequences were selected from the sequences shown in Table 12 and analyzed for their IFN-γ-binding ability by surface plasmon resonance assay and 57-mer DNA fragments (Table 13) truncated at a primer region. A previously reported 57-mer DNA fragment comprising the DNA sequence of IFN-γ was also prepared and analyzed as a control.

[4] = biological target: T2, IFN-gamma; test: SPR; existing aptamer control; conditions: tags: PeproTech; chain copies: 2
[5] = biological target: T1, VEGF-165; test: SPR; printed as uM, evidently pM; existing aptamer control; conditions: tags: PeproTech; chain copies: 2 (dimer, concentrations stated in terms of dimer)
Procedure: as §2
(§3) The DNA fragments used in the assay were subjected to curve fitting using BiaEvaluation software attached to Biacore 3000 and reaction models of Langmuir with mass transfer.

[6] = biological target: T2, IFN-gamma; test: SPR; Bound 0.14; conditions: tags: PeproTech; chain copies: 2
[7] = biological target: T1, VEGF-165; test: SPR; random control; conditions: tags: PeproTech; chain copies: 2 (dimer, concentrations stated in terms of dimer)
[8] = biological target: T1, VEGF-165; test: SPR; 25 C; conditions: tags: PeproTech; chain copies: 2 (dimer, concentrations stated in terms of dimer)
Procedure: as §2, §3

[9] = biological target: T1, VEGF-165; test: SPR; previously reported aptamer control; conditions: tags: PeproTech; chain copies: 2 (dimer, concentrations stated in terms of dimer); label: 5' biotin-dT
Procedure: For comparison, 98-mer (full length) N43Ds-09-1, full-length DNA fragments N43Ds-09-1(AT) and N43Ds-09-1(G) with the artificial base Ds replaced with a natural base, and a control DNA fragment reported as a VEGF-binding DNA aptamer (VEGF binding DNA 35, 35 mer) were also assayed under the same conditions. As in the full length binding analysis of Example 2, each DNA fragment having biotinylated T added to the end for the direct immobilization of the DNA fragment onto an SA chip (GE Healthcare Japan Corp.) was prepared by chemical synthesis and gel purification. For the immobilization of each DNA fragment onto the sensor chip, a DNA solution diluted with a PBS solution to 25 nM was subjected to folding treatment (90° C. for 3 min→60° C. for 3 min→25° C.), and Nonidet P-40 was then added thereto at a final concentration of 0.05%. The resulting DNA solution (5 μl; corresponding to 1 min) was injected to the SA chip at a flow rate of 5 μl/min to immobilize the DNA fragment onto the chip. […]
The interaction between the immobilized DNA fragment and VEGF-165 was detected under monitoring by the injection of 12.5 nM, 25 nM, 37.5 nM, 50 nM, 62.5 nM, and 75 nM VEGF-165 solutions (diluted with buffer solution A; in terms of dimer) at the Kinetic Injection mode. […]

[10] = biological target: T1, VEGF-165; test: SPR; 25 C; conditions: tags: PeproTech; chain copies: 2 (dimer, concentrations stated in terms of dimer); remark: listed apart in the source

T2 sequence (P01579 24-166, one chain of several): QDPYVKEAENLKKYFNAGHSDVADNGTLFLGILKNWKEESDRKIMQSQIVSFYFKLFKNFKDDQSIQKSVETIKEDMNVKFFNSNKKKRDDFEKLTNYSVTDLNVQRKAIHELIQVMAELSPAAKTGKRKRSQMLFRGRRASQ
T1 sequence (P15692 other isoform, or with tags, fused parts or gaps): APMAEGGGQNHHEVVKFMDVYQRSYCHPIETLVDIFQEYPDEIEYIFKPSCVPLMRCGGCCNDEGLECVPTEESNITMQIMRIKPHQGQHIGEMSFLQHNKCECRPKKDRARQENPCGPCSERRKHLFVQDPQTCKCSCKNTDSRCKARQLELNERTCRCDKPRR

B1: VG08A-57 (ssDNA)
DNA: ATCAGTCCACGAGATGGATGGTAGTGGCCGAACGGGGGGGATGGAGAAGCTGGCTG
- binding signal [1]: 0.01 bound ratio

B2: contVG-45 (ssDNA)
DNA: ATCGTATCAGTCCACAAGCCCGTCTTCCAGACAAGAGTGCAGGGC
- Kd [2]: 81 pM

B3: IF04A-57 (ssDNA)
DNA: ATCAGTCCACTAATCAGGAAGAAGATAGGGTTTGTCTTATGTTGCCACGCTGGGAG
- binding signal [3]: 0.08 bound ratio

B4: contIF-57 (ssDNA)
DNA: TTCTGTCAATCGATCGTATCAGTCCACAATGGGGTTGGTTGTGTTGGGTGTTGTGT
- Kd [4]: 67000 pM

B5: contVG-57 (ssDNA)
DNA: TCTGTCAATCGATCGTATCAGTCCACAAGCCCGTCTTCCAGACAAGAGTGCAGGGC
- Kd [5]: 46 pM

B6: VG02aA-57 (ssDNA)
DNA: ATCAGTCCACATCGAGCGTGAGGTCCGAAAGGCGACTCTTATAACATCAAGTAATG
- binding signal [1]: 0.01 bound ratio

B7: contVG-47 (ssDNA)
DNA: CGATCGTATCAGTCCACAAGCCCGTCTTCCAGACAAGAGTGCAGGGC
- Kd [2]: 44 pM

B8: IFd1-3A-45 (ssDNA)
DNA: TCGGGTCATTTAATAATGTAGGTATGGGCTAGGCAGCTAGTGGAT
- Kd [6]: > 200000 pM

B9: VG01A-57 (ssDNA)
DNA: ATCAGTCCACAAAGTGCTGGGTCCGAATGGCGGGGGGTTAGGCCTCTTTGGGGCGG
- binding signal [1]: 0.37 bound ratio

B10: IF07bA-57 (ssDNA)
DNA: ATCAGTCCACTCGGGTCGTTTAATAATGTAGGTATGGGCTAGGCAGCTAGTGGATG
- binding signal [3]: 0.05 bound ratio

B11: Random-45 (ssDNA)
DNA: ATGCTAGAGCATTGCGTAGAAGCTTGATATGTTGCTGGCCCGGAC
- binding signal [7]: 0.01 bound ratio

B12: VG02bA-57 (ssDNA)
DNA: ATCAGTCCACATACGCGGGGGTGTTGAAGGGTTAGTCGGAAGTAGTGTGTACAGAG
- binding signal [1]: 0.31 bound ratio

B13: IF07aA-57 (ssDNA)
DNA: ATCAGTCCACTCCTTCTGTCATAGGGCAGGCGCATTTGGTGTAGAGTTTATCTTGG
- binding signal [3]: 0.19 bound ratio

B14: VG20A-57 (ssDNA)
DNA: TCAGTCCACGGTAAACTGAGTCCGAAGGGGCATGCAGTGAACCCGAATGGGTCCGG
- Kd [8]: 220 pM

B15: IF11A-57 (ssDNA)
DNA: ATCAGTCCACCTATGTGGGTTGGATGGGGTGTATGTTAGTAGGGCTAAGGAGGTGG
- binding signal [3]: 0.46 bound ratio

B16: VEGF binding DNA 35 (ssDNA)
DNA: TTGCACTCTGTGGGGGTGGACGGGCCGGGTAGATA
- Kd [9]: > 100000 pM

B17: VGd1-2A-45 (ssDNA)
DNA: GTAAACTGCGTCCGAAGGGGCATGCAGTGAACCCGAATGGGTCCG
- Kd [10]: 500 pM
